Where a chain is given by its changes, count along the chain named.

The chains are these.
B1: P1AE5706 (antibody, V domains shown)
VH: ELQLEQSGGGLVQPGGSLTLSCAASGFTFSKYAMAWVRQAPTKGLEWVASISTGGVNTYYRDSVKARFTISRDNAKNTQYLQMDSLRSEDTATYYCATHTGDYFDYWGQGVMVTVSS
VL: DIVLTQSPALAVSPGQRATISCRASQSVSISGINLMNWYQQKPGQQPKLLIYHASILASGIPTRFSGSGSGTDFTLTIDPVQADDIATYYCQQTRESPLTFGSGTNLEIK
B2: P1AE5718 (antibody, V domains shown)
VH: B1 VH with E5L, Q6E, T19R, T42G, Q79L, D84N, S88A, T93V, V111T
VL: DIQMTQSPSSLSASVGDRVTITCRASQSVSISGINLMNWYQQKPGKQPKLLIYHASILASGVPSRFSGSGSGTDFTLTISSLQPEDFATYYCQQTRESPLTFGQGTRLEIK
B3: P1AE5719 (antibody, V domains shown)
VH: B1 VH with E5L, Q6E, T19R, T42G, Q79L, D84N, S88A, T93V, V111T
VL: B2 VL with K46Q
B4: P1AE5707 (antibody, V domains shown)
VH: EVQLLESGGGLVQPGGSLRLSCAASGFTFSKYAMAWVRQAPGKGLEWVASISTGGVNTYYRDSVKARFTISRDNSKNTLYLQMNSLRAEDTAVYYCATHTGDYFDYWGQGTMVTVSS
VL: DIVMTQSPDSLAVSLGERATINCRASQSVSISGINLMNWYQQKPGQQPKLLIYHASILASGVPDRFSGSGSGTDFTLTISSLQAEDVAVYYCQQTRESPLTFGQGTRLEIK
B5: P1AE5725 (antibody, V domains shown)
VH: B4 VH with R61A, A66G
VL: B2 VL with K46Q
B6: P1AE5731 (antibody, V domains shown)
VH: B4 VH with V2L, R61A, A66G, S75A
VL: B2 VL with K46Q
B7: P1AE5730 (antibody, V domains shown)
VH: B4 VH with V2L, R61A, A66G, S75A
VL: B2 VL
B8: P1AE5712 (antibody, V domains shown)
VH: B4 VH
VL: B2 VL
B9: P1AE5724 (antibody, V domains shown)
VH: B4 VH with R61A, A66G
VL: B2 VL
B10: P1AE5709 (antibody, V domains shown)
VH: B4 VH
VL: EIVLTQSPGTLSLSPGERATLSCRASQSVSISGINLMNWYQQKPGQQPRLLIYHASILASGIPDRFSGSGSGTDFTLTISRLEPEDFAVYYCQQTRESPLTFGQGTRLEIK
B11: P1AE5708 (antibody, V domains shown)
VH: B4 VH
VL: B4 VL with R24K, A25S
B12: P1AE5715 (antibody, V domains shown)
VH: B4 VH with V2L, S75A
VL: B4 VL with R24K, A25S
B13: P1AE5722 (antibody, V domains shown)
VH: B4 VH with R61A, A66G
VL: B10 VL
B14: P1AE5714 (antibody, V domains shown)
VH: B4 VH with V2L, S75A
VL: B4 VL
B15: P1AE5726 (antibody, V domains shown)
VH: B4 VH with V2L, R61A, A66G, S75A
VL: B4 VL
B16: P1AE5729 (antibody, V domains shown)
VH: B4 VH with V2L, R61A, A66G, S75A
VL: B10 VL with R49K
B17: P1AE5728 (antibody, V domains shown)
VH: B4 VH with V2L, R61A, A66G, S75A
VL: B10 VL
B18: P1AE5716 (antibody, V domains shown)
VH: B4 VH with V2L, S75A
VL: B10 VL
B19: P1AE5723 (antibody, V domains shown)
VH: B4 VH with R61A, A66G
VL: B10 VL with R49K
B20: P1AE5727 (antibody, V domains shown)
VH: B4 VH with V2L, R61A, A66G, S75A
VL: B4 VL with R24K, A25S
B21: P1AE5713 (antibody, V domains shown)
VH: B4 VH
VL: B2 VL with K46Q
B22: P1AE5717 (antibody, V domains shown)
VH: B4 VH with V2L, S75A
VL: B10 VL with R49K
B23: P1AE5721 (antibody, V domains shown)
VH: B4 VH with R61A, A66G
VL: B4 VL with R24K, A25S
B24: P1AE5710 (antibody, V domains shown)
VH: B4 VH
VL: B10 VL with R49K
B25: P1AE5720 (antibody, V domains shown)
VH: B4 VH with R61A, A66G
VL: B4 VL
B26: 5E11-TCB (bispecific antibody, human IgG1, kappa, L234A L235A)
light 1: DIVLTQSPALAVSPGQRATISCRASQSVSISGINLMNWYQQKPGQQPKLLIYHASILASGIPTRFSGSGSGTDFTLTIDPVQADDIATYYCQQTRESPLTFGSGTNLEIKRTVAAPSVFIFPPSDRKLKSGTASVVCLLNNFYPREAKVQWKVDNALQSGNSQESVTEQDSKDSTYSLSSTLTLSKADYEKHKVYACEVTHQGLSSPVTKSFNRGEC
light 2: EVQLLESGGGLVQPGGSLRLSCAASGFTFSTYAMNWVRQAPGKGLEWVSRIRSKYNNYATYYADSVKGRFTISRDDSKNTLYLQMNSLRAEDTAVYYCVRHGNFGNSYVSWFAYWGQGTLVTVSSASVAAPSVFIFPPSDEQLKSGTASVVCLLNNFYPREAKVQWKVDNALQSGNSQESVTEQDSKDSTYSLSSTLTLSKADYEKHKVYACEVTHQGLSSPVTKSFNRGEC
heavy 1: ELQLEQSGGGLVQPGGSLTLSCAASGFTFSKYAMAWVRQAPTKGLEWVASISTGGVNTYYRDSVKARFTISRDNAKNTQYLQMDSLRSEDTATYYCATHTGDYFDYWGQGVMVTVSSASTKGPSVFPLAPSSKSTSGGTAALGCLVEDYFPEPVTVSWNSGALTSGVHTFPAVLQSSGLYSLSSVVTVPSSSLGTQTYICNVNHKPSNTKVDEKVEPKSCDKTHTCPPCPAPEAAGGPSVFLFPPKPKDTLMISRTPEVTCVVVDVSHEDPEVKFNWYVDGVEVHNAKTKPREEQYNSTYRVVSVLTVLHQDWLNGKEYKCKVSNKALGAPIEKTISKAKGQPREPQVCTLPPSRDELTKNQVSLSCAVKGFYPSDIAVEWESNGQPENNYKTTPPVLDSDGSFFLVSKLTVDKSRWQQGNVFSCSVMHEALHNHYTQKSLSLSPGK
heavy 2: not shown
B27: ET150-5-TCB (bispecific antibody, human IgG1, lambda, L234A L235A)
light 1: QSVLTQPPSASGTPGQRVTISCSGSRSNVGGNYVFWYQQVPGATPKLLIYRSNQRPSGVPDRFAGSKSGSSASLAISGLRSEDEADYYCATWDDSLSGFVFGTGTKVTVLGQPKAAPSVTLFPPSSKKLQANKATLVCLISDFYPGAVTVAWKADSSPVKAGVETTTPSKQSNNKYAASSYLSLTPEQWKSHRSYSCQVTHEGSTVEKTVAPTECS
light 2: B26 light 2
heavy 1: EVQLVESGGGLVKPGGSLRLSCAASGFTFSDYYMSWIRQAPGKGLEWVSYISSSGSTIYYADSVKGRFTISRDNAKNSLYLQMNSLRAEDTAVYYCARGYGKAYDQWGQGTLVTVSSASTKGPSVFPLAPSSKSTSGGTAALGCLVEDYFPEPVTVSWNSGALTSGVHTFPAVLQSSGLYSLSSVVTVPSSSLGTQTYICNVNHKPSNTKVDEKVEPKSCDKTHTCPPCPAPEAAGGPSVFLFPPKPKDTLMISRTPEVTCVVVDVSHEDPEVKFNWYVDGVEVHNAKTKPREEQYNSTYRVVSVLTVLHQDWLNGKEYKCKVSNKALGAPIEKTISKAKGQPREPQVCTLPPSRDELTKNQVSLSCAVKGFYPSDIAVEWESNGQPENNYKTTPPVLDSDGSFFLVSKLTVDKSRWQQGNVFSCSVMHEALHNHYTQKSLSLSPGK
heavy 2: not shown

T1 sequence (Q9NZD1 whole entry): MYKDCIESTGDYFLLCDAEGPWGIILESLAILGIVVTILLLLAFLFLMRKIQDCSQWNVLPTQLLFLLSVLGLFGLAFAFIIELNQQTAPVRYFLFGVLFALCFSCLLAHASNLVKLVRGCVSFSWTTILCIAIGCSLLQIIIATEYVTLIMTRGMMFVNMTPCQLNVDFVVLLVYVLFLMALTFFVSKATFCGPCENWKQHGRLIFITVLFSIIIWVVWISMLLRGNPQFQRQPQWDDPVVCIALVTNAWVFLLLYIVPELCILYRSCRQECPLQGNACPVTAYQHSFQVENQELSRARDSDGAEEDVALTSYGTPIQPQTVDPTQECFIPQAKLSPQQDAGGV

One experiment addresses T1, human GPRC5D (human, UniProt Q9NZD1 1-345). As to the kind of experiment: cell-based or functional assay.
For the molecule B1, the “CAR-J2 EC50” value came to 3.9 ng/mL.

As for B2, the “CAR-J2 EC50” value is 105 ng/mL.

In the case of B3, the “CAR-J2 EC50” value was 2.8 ng/mL.

As for B4, the “CAR-J2 EC50” value stood at 42.4 ng/mL.

On to B5, for which the “CAR-J2 EC50” value worked out at 10.9 ng/mL.

In the case of B6, the “CAR-J2 EC50” value was 2.3 ng/mL.

Regarding B7, the “CAR-J2 EC50” value was determined as 3.5 ng/mL.

For the molecule B8, the “CAR-J2 EC50” value stood at 16.1 ng/mL.

On to B9, for which the “CAR-J2 EC50” value was 3.6 ng/mL.

B10: the “CAR-J2 EC50” value stood at 59.4 ng/mL.

Consider B11, for which the “CAR-J2 EC50” value was 456 ng/mL.

For the molecule B12, the “CAR-J2 EC50” value is 3.6 ng/mL.

Regarding B13, the “CAR-J2 EC50” value is 4.6 ng/mL.

Turning to B14, the “CAR-J2 EC50” value was found to be 5.5 ng/mL.

On to B15, for which the “CAR-J2 EC50” value came to 37.8 ng/mL.

With B16, the “CAR-J2 EC50” value stood at 61.3 ng/mL.

Regarding B17, the “CAR-J2 EC50” value turned out to be 5.6 ng/mL.

Take B18: the “CAR-J2 EC50” value was found to be 3.3 ng/mL.

Consider B19, for which the “CAR-J2 EC50” value came to 3.7 ng/mL.

Take B20: the “CAR-J2 EC50” value was found to be 6.3 ng/mL.

In the case of B21, the “CAR-J2 EC50” value was determined as 76.9 ng/mL.

With B22, the “CAR-J2 EC50” value was 79.9 ng/mL.

B23: the “CAR-J2 EC50” value is 25 ng/mL.

Consider B24, for which the “CAR-J2 EC50” value was found to be 3.5 ng/mL.

B25: the “CAR-J2 EC50” value was found to be 6.3 ng/mL.

In another experiment the target is T1, human GPRC5D. Put plainly: cell-based or functional assay. This is another data set of the same source.
Regarding B26, the “EC50 of in vitro killing, AMO-1” value is 0.008 nM; the “EC50 of in vitro killing, EJM” value was 0.011 nM; the “EC50 of in vitro killing, L363” value was found to be 0.017 nM; the “EC50 of in vitro killing, MOLP-2” value is 0.018 nM. Besides, the “EC50 of in vitro killing, NCI-H929” value amounted to 0.007 nM; the “EC50 of in vitro killing, OPM-2” value came to 0.002 nM; the “EC50 of in vitro killing, RPMI” value is 0.064 nM.

A further experiment concerns the target T1, human GPRC5D. Put plainly: cell-based or functional assay. This is another data set of the same source.
Turning to B26, the “EC50 of T cell mediated killing, AMO-1 cells (LDH release)” value was 0.014 nM; the “EC50 of T cell mediated killing, L363 cells (LDH release)” value came out at 0.012 nM; the “EC50 of T cell mediated killing, NCI-H929 cells (LDH release)” value stood at 0.007 nM; the “EC50 of T cell mediated killing, RPMI-8226 cells (LDH release)” value is 0.024 nM.

Turning to B27, the “EC50 of T cell mediated killing, AMO-1 cells (LDH release)” value was determined as 0.0835 nM; the “EC50 of T cell mediated killing, L363 cells (LDH release)” value came out at 0.768 nM; the “EC50 of T cell mediated killing, NCI-H929 cells (LDH release)” value came to 0.833 nM; the “EC50 of T cell mediated killing, RPMI-8226 cells (LDH release)” value is 0.797 nM.

Source of the values: US20220411491A1 (Hoffmann-La Roche, published 2022).
